For the assay, the target named is ribosomes isolated from wildtype CHO cells (hamster (endogenous in CHO)).

In publication PMC6919976 one finds rate of phosphorylation of eIF2α (2 µM) by GCN2 in vitro, with wildtype ribosomes against none data, which are given here for one substance.

Substance “GCN2, StrepII-tagged, purified from Sf9 cells (from UniProt Q9P2K8 1-1649) (enzyme)” displayed a rate of phosphorylation of eIF2α (2 µM) by GCN2 in vitro, with wildtype ribosomes against none of 10 fold.
